According to patent US20260027179A1, “ANTI-SYNUCLEINOPATHY PEPTIDE AND METHODS TO TREAT NEURODEGENERATIVE DISEASES” (University of British Columbia, priority 2021, published 2026):

What was measured:
endogenous α-synuclein = target: T1, endogenous α-synuclein (Rattus norvegicus, UniProt P37377); assay: Knockdown of endogenous α-synuclein in primary cortical neuron cultures, immunoblot; assay type: cell-based
T1 construct: endogenous in cells; host or cells: primary rat cortical neurons (14 DIV) and primary rat ventral midbrain neurons (3 DIV)
Method: Primary rat neuron cultures were prepared from embryos of pregnant Sprague-Dawley rats (E18). The experimental protocol was approved by the University of British Columbia Animal Care Committee. Briefly, the cortical tissue or ventral midbrain tissue was isolated into ice cold HBSS (Invitrogen, 14170-112) and then digested with 0.25% trypsin-EDTA at 37° C. for 30 min. After washing with warm DMEM (supplemented with 10% FBS) three times, neurons were suspended in neuron culture media and dissociated by trituration using varying sizes of pipettes. Neurons were then centrifuged, and the pellet was re-suspended in culture media, washed twice with culture media, and plated on the poly-D-lysine-coated plates. Neuron culture was maintained in the 37° C. incubator with […] and 5% CO2. The morning after culturing, 2/3 of the neuron culture media was replaced with fresh neuron culture media. Media was then replaced every 3-4 days. Primary rat cortical neuron culture was used 14 days in vitro (DIV) and primary rat ventral midbrain neuron culture was used 3 DIV.
Tat-βsyn-degron and Tat-βsyn peptides were first dissolved in sterile water as a 25 mM stock solution and then diluted directly in the neurobasal culture media to make the desired working concentration. 20 mM MPP+iodide stock solution was made freshly each time and diluted in the neurobasal culture media directly to make the desired working concentration. For 48 hrs treatment, neuron culture media containing MPP+ and peptides were replaced every 24 hrs.
Brain tissues or cultured cells were lysed on ice in the lysis buffer and then the solution was centrifuged at 14,000 rpm for 10 min at 4° C. Next, the supernatant was collected and protein concentrations were determined using a BCA protein assay kit (Thermo Scientific, 23227). Equal amount of protein samples was mixed with 4× sample buffer, boiled at 100° C. for 5 min, and separated on 10% sodium dodecyl sulphate-polyacrylamide gel electrophoresis (SDS-PAGE). Proteins were then transferred to Immobilon-PTM polyvinylidene fluoride (PVDF) membranes (Bio-Rad, 162-0177). The membranes were blocked with 5% non-fat milk in Tris-buffered saline containing 0.1% Tween-20 (TBST) for 1 hr at room temperature, and then incubated overnight at 4° C. with primary antibody. After washing 3×5 min in TBST, membranes were incubated with horseradish peroxidase-conjugated secondary antibody for 1 hr at room temperature. After another three washes with TBST, protein was visualized in the Bio-Rad Imager using ECL western blotting substrate (Pierce, 32016). The band density of each protein was quantified by the Bio-Rad Quantity One software and the relative optical density was analyzed relative to the loading control β-actin on the same membrane.

TH-positive neurons = assay: Protection against MPP+ toxicity in ventral midbrain cultures (TH protein, TH-positive neuron counting); assay type: cell-based, rat; settings: 25 μM, 48 hrs, MPP+ 20 μM
Method: Primary rat neuron cultures were prepared from embryos of pregnant Sprague-Dawley rats (E18). The experimental protocol was approved by the University of British Columbia Animal Care Committee. Briefly, the cortical tissue or ventral midbrain tissue was isolated into ice cold HBSS (Invitrogen, 14170-112) and then digested with 0.25% trypsin-EDTA at 37° C. for 30 min. After washing with warm DMEM (supplemented with 10% FBS) three times, neurons were suspended in neuron culture media and dissociated by trituration using varying sizes of pipettes. […]
Neurons were then washed 6×2 min in PBS, and incubated in Alexa Fluor 488 (Life technologies, A-11034; 1:500 dilution in 3% BSA/PBS) for 45 min at 37° C. without agitation. […] Neurons were then imaged with the Zeiss Axio Observer D1 microscope at 20× and 10 fields of view per coverslip were randomly selected and counted. […]
Brain tissues or cultured cells were lysed on ice in the lysis buffer and then the solution was centrifuged at 14,000 rpm for 10 min at 4° C. Next, the supernatant was collected and protein concentrations were determined using a BCA protein assay kit (Thermo Scientific, 23227). […] The band density of each protein was quantified by the Bio-Rad Quantity One software and the relative optical density was analyzed relative to the loading control β-actin on the same membrane.

YGRKKRRQRRRRTKSGVYLVGRRRG (The sequence is synthesized (YGRKKRRQRRRRTKSGVYLVGRRRG)) [Tat-βsyn-degron]
time course of knockdown of endogenous α-synuclein (endogenous α-synuclein; 50 μM bath application, primary cortical cultures): induced a time-dependent knockdown of endogenous α-synuclein
endogenous α-synuclein protein levels (endogenous α-synuclein; bath application 24 hrs, 5-50 μM (control 50 μM), cortical neuron cultures): robust reduction of endogenous α-synuclein protein levels in a dose-dependent manner
numbers of TH-positive neurons after MPP+ (TH-positive neurons; blinded counting): almost fully protected dopaminergic neurons
TH protein levels after MPP+ (TH-positive neurons; immunoblot): rescue of TH protein levels
